The values below come from article PMC8683598.

The target of experiment [1] is FLAG-T. castaneum methoprene-tolerant (T. castaneum). The experiment in a line: SEC-MALS; purified complex loaded at ~5 mg/ml, Superdex 200 10/300, 50 mM Tris, 350 mM NaCl, 10 uM methoprene, 2 mM MgCl2, 100 uM TCEP, pH 8.0; peak fractions checked by SDS-PAGE. For orientation: SEC sorts molecules by how far they enter the pores of the column.
Experiment [2] shares this target. The experiment in a line: native MS; purified methoprene-bound complex exchanged into 200 mM ammonium acetate pH 7.4, nano-ESI, Synapt G2Si.

What is called stoichiometry N is a count of units in the complex or per binding partner. As to “His6-Tribolium castaneum taiman (TcTAI) (domain or fragment)”, the stoichiometry N in experiment [1] and in experiment [2] was 1 throughout.
